Source: paper PMC6047744

Target: Polθ-helicase domain (human, UniProt O75417 1-894)
Assay: EMSA

Chain of Polθ-helicase domain (O75417 1-894): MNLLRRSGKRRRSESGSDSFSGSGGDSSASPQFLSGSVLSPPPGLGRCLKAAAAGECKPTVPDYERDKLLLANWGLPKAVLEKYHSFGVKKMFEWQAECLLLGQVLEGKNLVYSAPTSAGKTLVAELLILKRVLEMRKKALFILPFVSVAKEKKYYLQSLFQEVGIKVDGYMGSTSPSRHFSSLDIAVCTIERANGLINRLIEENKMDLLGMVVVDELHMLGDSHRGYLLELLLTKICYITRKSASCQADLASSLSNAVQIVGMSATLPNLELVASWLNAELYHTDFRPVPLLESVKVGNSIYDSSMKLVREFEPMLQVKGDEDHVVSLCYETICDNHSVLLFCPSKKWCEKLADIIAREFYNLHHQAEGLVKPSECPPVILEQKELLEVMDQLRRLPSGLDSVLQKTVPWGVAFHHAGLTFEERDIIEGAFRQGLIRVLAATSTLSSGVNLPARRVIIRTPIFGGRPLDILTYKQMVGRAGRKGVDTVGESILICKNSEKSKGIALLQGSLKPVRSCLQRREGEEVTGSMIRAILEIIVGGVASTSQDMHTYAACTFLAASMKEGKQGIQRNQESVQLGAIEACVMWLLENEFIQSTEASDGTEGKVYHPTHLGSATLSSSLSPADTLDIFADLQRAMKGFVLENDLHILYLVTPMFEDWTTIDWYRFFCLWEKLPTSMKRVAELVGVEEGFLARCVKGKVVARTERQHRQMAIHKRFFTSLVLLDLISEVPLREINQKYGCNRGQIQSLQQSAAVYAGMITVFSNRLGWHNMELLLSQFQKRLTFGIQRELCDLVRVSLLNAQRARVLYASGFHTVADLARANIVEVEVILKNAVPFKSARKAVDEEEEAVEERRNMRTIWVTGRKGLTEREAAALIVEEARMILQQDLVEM

B1: SM76 (ssDNA)
DNA: TTTTATATTTTGTTTTGTGTTATTTTTTTCTTTAACAT
  binding result: binds
